# From patent publication US12673101B2, “Varicella zoster” (ADJUVANCE TECHNOLOGIES, INC., priority 2019, dated 2026)
# Where a name gives a salt, the structure may show the parent alone.
# B1: 5 mcg gE alone: VZV glycoprotein E (gE) antigen, 5 mcg, without adjuvant (protein, UniProt P09259 31-623, looked up)
# Envelope glycoprotein E: SVLRYDDFHTDEDKLDTNSVYEPYYHSDHAESSWVNRGESSRKAYDHNSPYIWPRNDYDGFLENAHEHHGVYNQGRGIDSGERLMQPTQMSAQEDLGDDTGIHVIPTLNGDDRHKIVNVDQRQYGDVFKGDLNPKPQGQRLIEVSVEENHPFTLRAPIQRIYGVRYTETWSFLPSLTCTGDAAPAIQHICLKHTTCFQDVVVDVDCAENTKEDQLAEISYRFQGKKEADQPWIVVNTSTLFDELELDPPEIEPGVLKVLRTEKQYLGVYIWNMRGSDGTSTYATFLVTWKGDEKTRNPTPAVTPQPRGAEFHMWNYHSHVFSVGDTFSLAMHLQYKIHEAPFDLLLEWLYVPIDPTCQPMRLYSTCLYHPNAPQCLSHMNSGCTFTSPHLAQRVASTVYQNCEHADNYTAYCLGISHMEPSFGLILHDGGTTLKFVDTPESLSGLYVFVVYFNGHVEAVAYTVVSTVDHFVNAIEERGFPPTAGQPPATTKPKEITPVNPGTSPLLRYAAWTGGLAAVVLLCLVIFLICTAKRMRVKAYRVDKSPYNQSMYYAGLPVDDFEDSESTDTEEEFGNAIGGSHGGSSYTVYIDKTR
# How the values were obtained:
# Type in all cases: in vivo, Varicella zoster virus
# gE antigen [1] = assay: Mice immunized with gE, TQL-1055 choline salt with or without PHAD liposomes (Example 2): anti-gE IgG endpoint titers
# Protocol: The impact of TQL-1055 choline salt (Compound I-4 choline salt) on antibody titers induced by gE antigen was tested. Mice were immunized with gE (5 mcg) alone, gE (5 mcg) with liposomes containing PHAD (5 mcg), gE (5 mcg) with liposomes containing PHAD (5 mcg) and TQL-1055 choline salt (five groups: 5 mcg, 10 mcg, 20 mcg, 40 mcg, 80 mcg), and gE (5 mcg) with TQL-1055 choline salt (five groups: 5 mcg, 10 mcg, 20 mcg, 40 mcg, 80 mcg). Mice were immunized at Day 0 and Day 14. Groups were bled at Day 13 (post Dose 1) and Day 28 (post Dose 2) for serum analysis.
# gE antigen [2] = assay: Mice immunized with gE and liposomal adjuvant (Example 1): gE-specific total IgG titers
# Protocol: (§1) The impact of TQL-1055 free acid (Compound I-4 free acid) on antibody titers induced by gE antigen was tested. Mice were immunized with gE (5 mcg) alone, gE (5 mcg) with blank liposomes, gE (5 mcg) with liposomes containing PHAD (7.5 mcg), gE (5 mcg) with liposomes containing PHAD (7.5 mcg) and TQL-1055 free acid (four groups: 5 mcg, 15 mcg, 30 mcg, 50 mcg), and gE (5 mcg) with liposomes containing MPL® (7.5 mcg) and QS-21 (5 mcg). Mice were immunized at Day 0 and Day 14. Groups were bled at Day 14 (post Dose 1) and Day 28 (post Dose 2) for serum analysis for anti-gE specific antibody response.
# (§2) Log 10 transformed GMT were compared using One-way ANOVA. Groupwise comparisons were made and p-values adjusted for multiple comparisons with Tukey's post-hoc test. Groups 1 and 2 were excluded from the analysis. Family-wise α=0.05.
# gE antigen [3] = assay: Mice immunized with gE and liposomal adjuvant (Example 1): gE-specific total IgG1 titers
# Protocol: as §1, §2
# gE antigen [4] = assay: Mice immunized with gE and liposomal adjuvant (Example 1): gE-specific total IgG2c titers; details: post dose 1, 50 mcg TQL-1055 free acid with PHAD liposomes
# Protocol: as §1, §2
# gE antigen [5] = assay: Mice immunized with gE, oil-in-water emulsion (L2), TQL-1055 and PHAD liposomes (Example 3): anti-gE IgG endpoint titers; details: mice immunized Day 0 and Day 14
# Protocol: The impact of an oil-in-water emulsion containing TQL-1055 free acid (Compound I-4 free acid), TQL-1055 choline salt (Compound I-4 choline salt), PHAD liposomes, and combinations thereof on antibody titers induced by gE antigen was tested. Mice were immunized with PBS alone, gE (5 mcg) alone, gE (5 mcg) in an oil-in-water emulsion (L2), gE (5 mcg) and TQL-1055 choline salt (three groups: 5 mcg, 30 mcg, 100 mcg), gE (5 mcg) in an oil-in-water emulsion (L2) with TQL-1055 free acid (three groups: 5 mcg, 30 mcg, 100 mcg), gE (5 mcg) in an oil-in-water emulsion (L2) with TQL-1055 free acid (three groups: 5 mcg, 30 mcg, 100 mcg) and PHAD liposomes (20 mcg), and gE (5 mcg) with PHAD liposomes (20 mcg). Mice were immunized at Day 0 and Day 14. Groups were bled at Day 13 (post Dose 1) and Day 28 (post Dose 2) for serum analysis.
# [6] = mice immunized Day 0 and Day 14, serum Day 28 (post Dose 2)
molecule,measurement,setting,value
CC1O[C@@H](OC2C(O)[C@@H](NC(=O)CCCCCCCCCCC(=O)O)C(CO)O[C@H]2OC(=O)[C@]23CCC(C)(C)CC2C2=CCC4C5(C)CC[C@H](O)C(C)(C=O)C5CCC4(C)[C@]2(C)CC3O)C(O)C(O)[C@H]1O[C@@H]1OC[C@@H](O)C(O)C1O (stereo partly shown) [TQL-1055 choline salt],titers compared to groups including TQL-1055 free acid (Example 1),gE antigen [1]; after the first dose,trend to higher titers
same,titers compared to groups including TQL-1055 free acid (Example 1),gE antigen [1]; after the second dose,trend to higher titers
CC1O[C@@H](OC2C(O)[C@@H](NC(=O)CCCCCCCCCCC(=O)O)C(CO)O[C@H]2OC(=O)[C@]23CCC(C)(C)CC2C2=CCC4C5(C)CC[C@H](O)C(C)(C=O)C5CCC4(C)[C@]2(C)CC3O)C(O)C(O)[C@H]1O[C@@H]1OC[C@@H](O)C(O)C1O (stereo partly shown) [TQL-1055 free acid],gE-specific total IgG GMT compared to Group 7,"gE antigen [2]; mice, post dose 2, 50 mcg TQL-1055 free acid with PHAD liposomes, not statistically significant",trended higher
same,gE-specific IgG1 GMT compared to Group 7,"gE antigen [3]; mice, post dose 1, 50 mcg TQL-1055 free acid with PHAD liposomes",significantly higher
same,gE-specific IgG2c GMT compared to Group 7,gE antigen [4],significantly higher
B1,"gE-specific total IgG titers post dose 2, GMT",gE antigen [2]; [6],949.8
same,"gE-specific total IgG1 titers post dose 2, GMT",gE antigen [3]; [6],793.1
same,"Day 13 Anti-gE GMT titer, 5 mcg PHAD in liposomes","gE antigen [1]; Day 13 (post Dose 1), with 5 mcg PHAD in liposomes","19,037"
same,"Day 13 Anti-gE GMT titer, without PHAD liposomes","gE antigen [1]; Day 13 (post Dose 1), without PHAD liposomes",135
same,"Day 28 Anti-gE GMT titer, 5 mcg PHAD in liposomes","gE antigen [1]; Day 28 (post Dose 2), with 5 mcg PHAD in liposomes","689,865"
same,"Day 28 Anti-gE GMT titer, without PHAD liposomes","gE antigen [1]; Day 28 (post Dose 2), without PHAD liposomes","12,311"
same,"gE-specific total IgG titers post dose 1, Geometric mean",gE antigen [5]; serum Day 13 (post Dose 1),138.0
same,"gE-specific total IgG titers post dose 2, Geometric mean",gE antigen [5]; serum Day 28 (post Dose 2),5012
